Reference: doi:10.1101/2019.12.16.876623 (bioRxiv, 2019)

T1: His-MBP-Cdc5 T238D (S. cerevisiae, UniProt P32562 1-705, T238D)
T1 sequence (looked up): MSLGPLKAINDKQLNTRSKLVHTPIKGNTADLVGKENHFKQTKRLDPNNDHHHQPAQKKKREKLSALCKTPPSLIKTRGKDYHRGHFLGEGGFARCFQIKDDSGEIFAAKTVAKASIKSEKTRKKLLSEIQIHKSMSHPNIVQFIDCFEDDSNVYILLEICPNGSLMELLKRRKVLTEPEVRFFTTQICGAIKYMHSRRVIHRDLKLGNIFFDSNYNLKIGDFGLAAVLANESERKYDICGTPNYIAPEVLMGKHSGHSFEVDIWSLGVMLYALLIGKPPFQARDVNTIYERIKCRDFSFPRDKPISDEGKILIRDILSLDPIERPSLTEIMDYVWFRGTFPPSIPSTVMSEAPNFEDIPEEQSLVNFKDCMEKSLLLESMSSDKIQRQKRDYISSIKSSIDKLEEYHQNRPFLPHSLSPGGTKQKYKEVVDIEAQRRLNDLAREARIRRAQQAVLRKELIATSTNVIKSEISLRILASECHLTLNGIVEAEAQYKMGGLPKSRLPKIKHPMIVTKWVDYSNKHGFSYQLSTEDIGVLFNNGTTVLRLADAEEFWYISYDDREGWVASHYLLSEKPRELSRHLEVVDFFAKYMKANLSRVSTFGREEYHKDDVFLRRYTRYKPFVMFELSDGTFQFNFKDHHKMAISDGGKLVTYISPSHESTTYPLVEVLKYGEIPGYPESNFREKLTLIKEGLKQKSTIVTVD


target: T1, His-MBP-Cdc5 T238D; assay: pull-down

binding result	Binder
binds	Exo1-Flag (recombinant, untreated) (natural protein, yeast, UniProt P39875 1-702, looked up) MGIQGLLPQLKPIQNPVSLRRYEGEVLAIDGYAWLHRAACSCAYELAMGKPTDKYLQFFIKRFSLLKTFKVEPYLVFDGDAIPVKKSTESKRRDKRKENKAIAERLWACGEKKNAMDYFQKCVDITPEMAKCIICYCKLNGIRYIVAPFEADSQMVYLEQKNIVQGIISEDSDLLVFGCRRLITKLNDYGECLEICRDNFIKLPKKFPLGSLTNEEIITMVCLSGCDYTNGIPKVGLITAMKLVRRFNTIERIILSIQREGKLMIPDTYINEYEAAVLAFQFQRVFCPIRKKIVSLNEIPLYLKDTESKRKRLYACIGFVIHRETQKKQIVHFDDDIDHHLHLKIAQGDLNPYDFHQPLANREHKLQLASKSNIEFGKTNTTNSEAKVKPIESFFQKMTKLDHNPKVANNIHSLRQAEDKLTMAIKRRKLSNANVVQETLKDTRSKFFNKPSMTVVENFKEKGDSIQDFKEDTNSQSLEEPVSESQLSTQIPSSFITTNLEDDDNLSEEVSEVVSDIEEDRKNSEGKTIGNEIYNTDDDGDGDTSEDYSETAESRVPTSSTTSFPGSSQRSISGCTKVLQKFRYSSSFSGVNANRQPLFPRHVNQKSRGMVYVNQNRDDDCDDNDGKNQITQRPSLRKSLIGARSQRIVIDMKSVDERKSFNSSPILHEESKKRDIETTKSSQARPAVRSISLLSQFVYKGK
binds	Exo1-Flag (recombinant, treated with CDK1-cyclin B) (natural protein, yeast, UniProt P39875 1-702, looked up, phosphorylated in vitro with CDK1-cyclin B; sites not stated) MGIQGLLPQLKPIQNPVSLRRYEGEVLAIDGYAWLHRAACSCAYELAMGKPTDKYLQFFIKRFSLLKTFKVEPYLVFDGDAIPVKKSTESKRRDKRKENKAIAERLWACGEKKNAMDYFQKCVDITPEMAKCIICYCKLNGIRYIVAPFEADSQMVYLEQKNIVQGIISEDSDLLVFGCRRLITKLNDYGECLEICRDNFIKLPKKFPLGSLTNEEIITMVCLSGCDYTNGIPKVGLITAMKLVRRFNTIERIILSIQREGKLMIPDTYINEYEAAVLAFQFQRVFCPIRKKIVSLNEIPLYLKDTESKRKRLYACIGFVIHRETQKKQIVHFDDDIDHHLHLKIAQGDLNPYDFHQPLANREHKLQLASKSNIEFGKTNTTNSEAKVKPIESFFQKMTKLDHNPKVANNIHSLRQAEDKLTMAIKRRKLSNANVVQETLKDTRSKFFNKPSMTVVENFKEKGDSIQDFKEDTNSQSLEEPVSESQLSTQIPSSFITTNLEDDDNLSEEVSEVVSDIEEDRKNSEGKTIGNEIYNTDDDGDGDTSEDYSETAESRVPTSSTTSFPGSSQRSISGCTKVLQKFRYSSSFSGVNANRQPLFPRHVNQKSRGMVYVNQNRDDDCDDNDGKNQITQRPSLRKSLIGARSQRIVIDMKSVDERKSFNSSPILHEESKKRDIETTKSSQARPAVRSISLLSQFVYKGK
binds	Exo1-Flag (recombinant, treated with lambda phosphatase) (natural protein, yeast, UniProt P39875 1-702, looked up, dephosphorylated with lambda phosphatase) MGIQGLLPQLKPIQNPVSLRRYEGEVLAIDGYAWLHRAACSCAYELAMGKPTDKYLQFFIKRFSLLKTFKVEPYLVFDGDAIPVKKSTESKRRDKRKENKAIAERLWACGEKKNAMDYFQKCVDITPEMAKCIICYCKLNGIRYIVAPFEADSQMVYLEQKNIVQGIISEDSDLLVFGCRRLITKLNDYGECLEICRDNFIKLPKKFPLGSLTNEEIITMVCLSGCDYTNGIPKVGLITAMKLVRRFNTIERIILSIQREGKLMIPDTYINEYEAAVLAFQFQRVFCPIRKKIVSLNEIPLYLKDTESKRKRLYACIGFVIHRETQKKQIVHFDDDIDHHLHLKIAQGDLNPYDFHQPLANREHKLQLASKSNIEFGKTNTTNSEAKVKPIESFFQKMTKLDHNPKVANNIHSLRQAEDKLTMAIKRRKLSNANVVQETLKDTRSKFFNKPSMTVVENFKEKGDSIQDFKEDTNSQSLEEPVSESQLSTQIPSSFITTNLEDDDNLSEEVSEVVSDIEEDRKNSEGKTIGNEIYNTDDDGDGDTSEDYSETAESRVPTSSTTSFPGSSQRSISGCTKVLQKFRYSSSFSGVNANRQPLFPRHVNQKSRGMVYVNQNRDDDCDDNDGKNQITQRPSLRKSLIGARSQRIVIDMKSVDERKSFNSSPILHEESKKRDIETTKSSQARPAVRSISLLSQFVYKGK
